US20250101086A1 (RESEARCH FOUNDATION OF THE CITY UNIVERSITY OF NEW YORK, published 2025)
Residue numbers refer to the chain shown, from its start.

T1: IR6 peptide (Borrelia burgdorferi strain B31, biotin-labeled on the N terminus)
T1 construct: Synthetic peptide based on VlsE of strain B31 (GenBank U76405); also called invariant region 6
T1 peptide: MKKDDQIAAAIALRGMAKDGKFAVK

T2: IR4 peptide (Borrelia burgdorferi strain B31, biotin-labeled on the N terminus)
T2 construct: also called invariant region 4
T2 peptide: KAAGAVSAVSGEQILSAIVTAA

B1: 1D11 recombinant monoclonal antibody (re-cloned from the second most abundant VH and VL sequences) (antibody, V domains shown)
VH: QSLVESGGGLVQPEGSLTLTCKASGFSFSSGYDMCWVRQAPGKGLEYIACIDAGDDITHYASWVKGRFTVSKTSSTTVTLQLNSLTVADTATYFCGRFWDLWGPGTLVTVSS
VL: SVLTQTPSPVSAAVGGTVTINCQSSQSVYDSTWLGWYQQKPGQPPKLLIYKASNLASGVPSRFKGSGSGTHFTLTISDLECDDAATYYCVGGYSGSVDNWAFGGGTEVVVK
notes: Rabbit recombinant monoclonal IgG; the rabbit constant regions are cited to the literature; The variable fragments were cloned into pcDNA3.4 and expressed in mouse cells; also called ID11; new rMAb
B2: antibody with VH SEQ ID NO: 3 and VL SEQ ID NO: 4 (antibody, V domains shown)
VH: QSLEESGGGLFKPTDTLTLTCTVSGIDLSSYAMIWVRQAPGKGLEWIGYIWSSGRIWYASWAKGRFTISRTSTTVDLKLASPTTEDTATYFCARLWDIWGPGTLVTVSS
VL: AQVLTQTPSSVSAAVGGTVTISCQASQSLYNGVNLAWYQQKPGQPPKLLIFGASNLESGVSSRFRGSGSGTQFTLTISGVQCDDAATYYCLGEFSCSSADCLAFGGGTEVVVK
B3: antibody with VH SEQ ID NO: 5 and VL SEQ ID NO: 6 (antibody, V domains shown)
VH: QSVEESGGRLVTPGTPLTLTCTVSGFPLSSYSMAWVRQAPGKGLEYIGFINTDGSAYYASWAKGRITISKTSTTVELKITSPTTEDTATYFCGTGNIWGPGTLVTVSS
VL: AQVLTQTPSSVSAAVGGTVTINCQASQSVSNNNVLAWFQQKPGQPPKRLIYSALTLDSGVPSRFKGSGSGTHFTLTISGVQCDDAATYYCAGGYDCSSNDCIAFGGGTEVVVK
B4: antibody with VH SEQ ID NO: 7 and VL SEQ ID NO: 8 (antibody, V domains shown)
VH: B3 VH with P27S, A34G, F49M, N51I, T52S, D53N, G54N, A56T
VL: B3 VL with S9A, V29T, V34A, A103T

Key:
[1] = biological target: T3, recombinant VlsE protein (of strain B31) (Borrelia burgdorferi strain B31); test: titration on VlsE, given as ED50; method not given
T3 construct: domain: vlsE cassette region (including the IR1 through VR6 regions); Preparation of about 65% purity; Used as immunogen, as ELISA antigen and on beads; also called VISE; recombinant B31 VlsE

IR6 peptide = biological target: T1, IR6 peptide; test: ELISA of purified rMAb on coated peptide
IR4 peptide = biological target: T2, IR4 peptide; test: not given; it says that supporting data are given elsewhere in the disclosure (ELISA)

Binder	EC50 [1]	binding result (IR6 peptide)	binding result (IR4 peptide)
B1	0.0109 µg/mL	binds	–
B2	–	–	binds
B3	–	–	binds
B4	–	–	binds
